In patent publication US20240117011A1 one finds pseudotyped virus neutralization IC50 and pseudotyped virus neutralization IC80 data, which are given here for one substance.

This assay concerns the target full-length SARS-CoV-2 spike, WA-1 / Wuhan-1 (S wt) (SARS-CoV-2) (UniProt P0DTC2). Nature of the assay: cell-based or functional assay.

Substance LY-CoV555 (antibody) registered a pseudotyped virus neutralization IC50 of 0.0071 µg/mL and a pseudotyped virus neutralization IC80 of 0.0357 µg/mL.
